Test results: the supplement of paper PMC11908140

B1: library; numbered along this chain (parent)
chain: MRKPRAAVGSGHRKQAASQEGRQKHAKNNSQAKPSACDGLARQPEEVVLQASVSSYHLFRDVAEVTAFRGSLLSWYDQEKRDLPWRRRAEDEMDLDRRAYAVWVSEVMLQQTQVATVINYYTGWMQKWPTLQDLASASLEEVNQLWAGLGYYSRGRRLQEGARKVVEELGGHMPRTAETLQQLLPGVGRYTAGAIASIAFGQATGVVDGNVARVLCRVRAIGADPSSTLVSQQLWGLAQQLVDPARPGDFNQAAMELGATVCTPQRPLCSQCPVESLCRARQRVEQEQLLASGSLSGSPDVEECAPNTGQCHLCLPPSEPWDQTLGVVNFPRKASRKPPREESSATCVLEQPGALGAQILLVQRPNSGLLAGLWEFPSVTWEPSEQLQRKALLQELQRWAGPLPATHLRHLGEVVHTFSHIKLTYQVYGLALEGQTPVTTVPPGARWLTQEEFHTAAVSTAMKKVFRVYQGQQPGTCMGSKRSQVSSPCSRKKPRMGQQVLDNFFRSHISTDAHSLNSAAQ

Variants of: B1
Test: 8OG:A repair function score (normalized; synonymous = 0, nonsense = -1) (normalized log-likelihood score); higher = more repair activity (WT-like)
Conditions: with 8OG:A DNA repair reporter (GFP) in HEK-293 MUTYH KO cells
Summary of the method: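 With 10 pg/ml doxycycline, MUTYH knockout HEK-293 cells carrying lentiviral MUTYH cDNA NNN codon-scan libraries were co-transfected with mCherry and an 8OG:A GFP repair reporter. Viable mCherry+ cells were sorted into GFP+ (repair) and GFP− bins at 72 h, three replicates per tile, and tile amplicons were sequenced. Per-tile Rosace fitness scores were then normalized into a repair function score anchored on synonymous and nonsense distributions. Medians were fixed at 0 for synonymous and -1 for nonsense, excluding variants under 300 counts per million at the start.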

In order of rising “8OG:A repair function score” value:
1. MRKPRAAVGSGHRKQAASQEGRQKHAKNNSQAKPSACDGLARQPEEVVLQASVSSYHLFRDVAEVTAFRGSLLSWYDQEKRDLPWRRRAEDEMDLDRRAYAVWVSEVMLQQTQVATVINYYTGWMQKWPTLQDLASASLEEVNQLWAGLGYYSRGRRLQEGARKVVEELGGHMPRTAETLQQLLPGVGRYTAGAIASIAFGQATGVVDGNVARVLCRVRAIGADPSSTLVSQQLWGLAQQLVDPARPGDFNQAAMELGATVCTPQRPLCSQCPVESLCRARQRVEQEQLLASGSLSGSPDVEECAPNTGQCHLCLPPSEPWDQTLGVVNFPRKASRKPPREESSATCVLEQPGALGAQILLVQRPNSGLLAGLWEFPSVTWEPSEQLQRKALLQELQRWAGPLPATHLRHLGEVVHTFSHIKLTYQVYGLALEGQTPVTTVPPGARWLTQEEFHTAAVSTAMKKVFRVYQGQQPGTCMGSKRSQVSSPCSRKKPRQGQQVLDNFFRSHISTDAHSLNSAAQ [M496Q]  -0.106
2. MRKPRAAVGSGHRKQAASQEGRQKHAKNNSQAKPSACDGLARQPEEVVLQASVSSYHLFRDVAEVTAFRGSLLSWYDQEKRDLPWRRRAEDEMDLDRRAYAVWVSEVMLQQTQVATVINYYTGWMQKWPTLQDLASASLEEVNQLWAGLGYYSRGRRLQEGARKVVEELGGHMPRTAETLQQLLPGVGRYTAGAIASIAFGQATGVVDGNVARVLCRVRAIGADPSSTLVSQQLWGLAQQLVDPARPGDFNQAAMELGATVCTPQRPLCSQCPVESLCRARQRVEQEQLLASGSLSGSPDVEECAPNTGQCHLCLPPSEPWDQTLGVVNFPRKASRKPPREESSATCVLEQPGALGAQILLVQRPNSGLLAGLWEFPSVTWEPSEQLQRKALLQELQRWAGPLPATHLRHLGEVVHTFSHIKLTYQVYGLALEGQTPVTTVPPGARWLTQEEFHTAAVSTAMKKVFRVYQGQQPGTCMGSKRSQVSSPCSRKKPRSGQQVLDNFFRSHISTDAHSLNSAAQ [M496S]  -0.0675
3. MRKPRAAVGSGHRKQAASQEGRQKHAKNNSQAKPSACDGLARQPEEVVLQASVSSYHLFRDVAEVTAFRGSLLSWYDQEKRDLPWRRRAEDEMDLDRRAYAVWVSEVMLQQTQVATVINYYTGWMQKWPTLQDLASASLEEVNQLWAGLGYYSRGRRLQEGARKVVEELGGHMPRTAETLQQLLPGVGRYTAGAIASIAFGQATGVVDGNVARVLCRVRAIGADPSSTLVSQQLWGLAQQLVDPARPGDFNQAAMELGATVCTPQRPLCSQCPVESLCRARQRVEQEQLLASGSLSGSPDVEECAPNTGQCHLCLPPSEPWDQTLGVVNFPRKASRKPPREESSATCVLEQPGALGAQILLVQRPNSGLLAGLWEFPSVTWEPSEQLQRKALLQELQRWAGPLPATHLRHLGEVVHTFSHIKLTYQVYGLALEGQTPVTTVPPGARWLTQEEFHTAAVSTAMKKVFRVYQGQQPGTCMGSKRSQVSSPCSRKKPRIGQQVLDNFFRSHISTDAHSLNSAAQ [M496I]  -0.0358
4. MRKPRAAVGSGHRKQAASQEGRQKHAKNNSQAKPSACDGLARQPEEVVLQASVSSYHLFRDVAEVTAFRGSLLSWYDQEKRDLPWRRRAEDEMDLDRRAYAVWVSEVMLQQTQVATVINYYTGWMQKWPTLQDLASASLEEVNQLWAGLGYYSRGRRLQEGARKVVEELGGHMPRTAETLQQLLPGVGRYTAGAIASIAFGQATGVVDGNVARVLCRVRAIGADPSSTLVSQQLWGLAQQLVDPARPGDFNQAAMELGATVCTPQRPLCSQCPVESLCRARQRVEQEQLLASGSLSGSPDVEECAPNTGQCHLCLPPSEPWDQTLGVVNFPRKASRKPPREESSATCVLEQPGALGAQILLVQRPNSGLLAGLWEFPSVTWEPSEQLQRKALLQELQRWAGPLPATHLRHLGEVVHTFSHIKLTYQVYGLALEGQTPVTTVPPGARWLTQEEFHTAAVSTAMKKVFRVYQGQQPGTCMGSKRSQVSSPCSRKKPRTGQQVLDNFFRSHISTDAHSLNSAAQ [M496T]  -0.0187
5. MRKPRAAVGSGHRKQAASQEGRQKHAKNNSQAKPSACDGLARQPEEVVLQASVSSYHLFRDVAEVTAFRGSLLSWYDQEKRDLPWRRRAEDEMDLDRRAYAVWVSEVMLQQTQVATVINYYTGWMQKWPTLQDLASASLEEVNQLWAGLGYYSRGRRLQEGARKVVEELGGHMPRTAETLQQLLPGVGRYTAGAIASIAFGQATGVVDGNVARVLCRVRAIGADPSSTLVSQQLWGLAQQLVDPARPGDFNQAAMELGATVCTPQRPLCSQCPVESLCRARQRVEQEQLLASGSLSGSPDVEECAPNTGQCHLCLPPSEPWDQTLGVVNFPRKASRKPPREESSATCVLEQPGALGAQILLVQRPNSGLLAGLWEFPSVTWEPSEQLQRKALLQELQRWAGPLPATHLRHLGEVVHTFSHIKLTYQVYGLALEGQTPVTTVPPGARWLTQEEFHTAAVSTAMKKVFRVYQGQQPGTCMGSKRSQVSSPCSRKKPRLGQQVLDNFFRSHISTDAHSLNSAAQ [M496L]  -0.0124
6. MRKPRAAVGSGHRKQAASQEGRQKHAKNNSQAKPSACDGLARQPEEVVLQASVSSYHLFRDVAEVTAFRGSLLSWYDQEKRDLPWRRRAEDEMDLDRRAYAVWVSEVMLQQTQVATVINYYTGWMQKWPTLQDLASASLEEVNQLWAGLGYYSRGRRLQEGARKVVEELGGHMPRTAETLQQLLPGVGRYTAGAIASIAFGQATGVVDGNVARVLCRVRAIGADPSSTLVSQQLWGLAQQLVDPARPGDFNQAAMELGATVCTPQRPLCSQCPVESLCRARQRVEQEQLLASGSLSGSPDVEECAPNTGQCHLCLPPSEPWDQTLGVVNFPRKASRKPPREESSATCVLEQPGALGAQILLVQRPNSGLLAGLWEFPSVTWEPSEQLQRKALLQELQRWAGPLPATHLRHLGEVVHTFSHIKLTYQVYGLALEGQTPVTTVPPGARWLTQEEFHTAAVSTAMKKVFRVYQGQQPGTCMGSKRSQVSSPCSRKKPRGGQQVLDNFFRSHISTDAHSLNSAAQ [M496G]  -0.00643
7. MRKPRAAVGSGHRKQAASQEGRQKHAKNNSQAKPSACDGLARQPEEVVLQASVSSYHLFRDVAEVTAFRGSLLSWYDQEKRDLPWRRRAEDEMDLDRRAYAVWVSEVMLQQTQVATVINYYTGWMQKWPTLQDLASASLEEVNQLWAGLGYYSRGRRLQEGARKVVEELGGHMPRTAETLQQLLPGVGRYTAGAIASIAFGQATGVVDGNVARVLCRVRAIGADPSSTLVSQQLWGLAQQLVDPARPGDFNQAAMELGATVCTPQRPLCSQCPVESLCRARQRVEQEQLLASGSLSGSPDVEECAPNTGQCHLCLPPSEPWDQTLGVVNFPRKASRKPPREESSATCVLEQPGALGAQILLVQRPNSGLLAGLWEFPSVTWEPSEQLQRKALLQELQRWAGPLPATHLRHLGEVVHTFSHIKLTYQVYGLALEGQTPVTTVPPGARWLTQEEFHTAAVSTAMKKVFRVYQGQQPGTCMGSKRSQVSSPCSRKKPRPGQQVLDNFFRSHISTDAHSLNSAAQ [M496P]  -3.86e-05
8. MRKPRAAVGSGHRKQAASQEGRQKHAKNNSQAKPSACDGLARQPEEVVLQASVSSYHLFRDVAEVTAFRGSLLSWYDQEKRDLPWRRRAEDEMDLDRRAYAVWVSEVMLQQTQVATVINYYTGWMQKWPTLQDLASASLEEVNQLWAGLGYYSRGRRLQEGARKVVEELGGHMPRTAETLQQLLPGVGRYTAGAIASIAFGQATGVVDGNVARVLCRVRAIGADPSSTLVSQQLWGLAQQLVDPARPGDFNQAAMELGATVCTPQRPLCSQCPVESLCRARQRVEQEQLLASGSLSGSPDVEECAPNTGQCHLCLPPSEPWDQTLGVVNFPRKASRKPPREESSATCVLEQPGALGAQILLVQRPNSGLLAGLWEFPSVTWEPSEQLQRKALLQELQRWAGPLPATHLRHLGEVVHTFSHIKLTYQVYGLALEGQTPVTTVPPGARWLTQEEFHTAAVSTAMKKVFRVYQGQQPGTCMGSKRSQVSSPCSRKKPRNGQQVLDNFFRSHISTDAHSLNSAAQ [M496N]  0.00145
9. MRKPRAAVGSGHRKQAASQEGRQKHAKNNSQAKPSACDGLARQPEEVVLQASVSSYHLFRDVAEVTAFRGSLLSWYDQEKRDLPWRRRAEDEMDLDRRAYAVWVSEVMLQQTQVATVINYYTGWMQKWPTLQDLASASLEEVNQLWAGLGYYSRGRRLQEGARKVVEELGGHMPRTAETLQQLLPGVGRYTAGAIASIAFGQATGVVDGNVARVLCRVRAIGADPSSTLVSQQLWGLAQQLVDPARPGDFNQAAMELGATVCTPQRPLCSQCPVESLCRARQRVEQEQLLASGSLSGSPDVEECAPNTGQCHLCLPPSEPWDQTLGVVNFPRKASRKPPREESSATCVLEQPGALGAQILLVQRPNSGLLAGLWEFPSVTWEPSEQLQRKALLQELQRWAGPLPATHLRHLGEVVHTFSHIKLTYQVYGLALEGQTPVTTVPPGARWLTQEEFHTAAVSTAMKKVFRVYQGQQPGTCMGSKRSQVSSPCSRKKPRKGQQVLDNFFRSHISTDAHSLNSAAQ [M496K]  0.00764
10. MRKPRAAVGSGHRKQAASQEGRQKHAKNNSQAKPSACDGLARQPEEVVLQASVSSYHLFRDVAEVTAFRGSLLSWYDQEKRDLPWRRRAEDEMDLDRRAYAVWVSEVMLQQTQVATVINYYTGWMQKWPTLQDLASASLEEVNQLWAGLGYYSRGRRLQEGARKVVEELGGHMPRTAETLQQLLPGVGRYTAGAIASIAFGQATGVVDGNVARVLCRVRAIGADPSSTLVSQQLWGLAQQLVDPARPGDFNQAAMELGATVCTPQRPLCSQCPVESLCRARQRVEQEQLLASGSLSGSPDVEECAPNTGQCHLCLPPSEPWDQTLGVVNFPRKASRKPPREESSATCVLEQPGALGAQILLVQRPNSGLLAGLWEFPSVTWEPSEQLQRKALLQELQRWAGPLPATHLRHLGEVVHTFSHIKLTYQVYGLALEGQTPVTTVPPGARWLTQEEFHTAAVSTAMKKVFRVYQGQQPGTCMGSKRSQVSSPCSRKKPRFGQQVLDNFFRSHISTDAHSLNSAAQ [M496F]  0.0105
11. MRKPRAAVGSGHRKQAASQEGRQKHAKNNSQAKPSACDGLARQPEEVVLQASVSSYHLFRDVAEVTAFRGSLLSWYDQEKRDLPWRRRAEDEMDLDRRAYAVWVSEVMLQQTQVATVINYYTGWMQKWPTLQDLASASLEEVNQLWAGLGYYSRGRRLQEGARKVVEELGGHMPRTAETLQQLLPGVGRYTAGAIASIAFGQATGVVDGNVARVLCRVRAIGADPSSTLVSQQLWGLAQQLVDPARPGDFNQAAMELGATVCTPQRPLCSQCPVESLCRARQRVEQEQLLASGSLSGSPDVEECAPNTGQCHLCLPPSEPWDQTLGVVNFPRKASRKPPREESSATCVLEQPGALGAQILLVQRPNSGLLAGLWEFPSVTWEPSEQLQRKALLQELQRWAGPLPATHLRHLGEVVHTFSHIKLTYQVYGLALEGQTPVTTVPPGARWLTQEEFHTAAVSTAMKKVFRVYQGQQPGTCMGSKRSQVSSPCSRKKPRRGQQVLDNFFRSHISTDAHSLNSAAQ [M496R]  0.0258
12. MRKPRAAVGSGHRKQAASQEGRQKHAKNNSQAKPSACDGLARQPEEVVLQASVSSYHLFRDVAEVTAFRGSLLSWYDQEKRDLPWRRRAEDEMDLDRRAYAVWVSEVMLQQTQVATVINYYTGWMQKWPTLQDLASASLEEVNQLWAGLGYYSRGRRLQEGARKVVEELGGHMPRTAETLQQLLPGVGRYTAGAIASIAFGQATGVVDGNVARVLCRVRAIGADPSSTLVSQQLWGLAQQLVDPARPGDFNQAAMELGATVCTPQRPLCSQCPVESLCRARQRVEQEQLLASGSLSGSPDVEECAPNTGQCHLCLPPSEPWDQTLGVVNFPRKASRKPPREESSATCVLEQPGALGAQILLVQRPNSGLLAGLWEFPSVTWEPSEQLQRKALLQELQRWAGPLPATHLRHLGEVVHTFSHIKLTYQVYGLALEGQTPVTTVPPGARWLTQEEFHTAAVSTAMKKVFRVYQGQQPGTCMGSKRSQVSSPCSRKKPRHGQQVLDNFFRSHISTDAHSLNSAAQ [M496H]  0.0281
